Source: the supplement of paper PMC9112550, “Optimization of the antimicrobial peptide Bac7 by deep mutational scanning” (BMC Biology, 2022)
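Note: peptides expressed intracellularly from a pBAD plasmid library in pooled LB shake-flask culture, induced with 0.3% L-arabinose, DNA abundance read by NGS, three biological replicates, DESeq2 with apeglm shrinkage.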

The sequences below were run on Escherichia coli TOP10 (assay: shrunken log2 fold change of peptide-encoding DNA abundance (4.5 h post-induction vs induction); higher = less antimicrobial activity (less host growth inhibition)). Conditions: time post-induction: 4.5 h; library: site-saturation at positions 5, 18, 19, 20.
RRIRMRPPRLPRPRPRPQRVPRP was tested, and the “shrunken log2 fold change” value was 1.27. RRIRMRPPRLPRPRPRPQSDPRP was tested, and the “shrunken log2 fold change” value was -0.00296. RRIRMRPPRLPRPRPRPQSKPRP was tested, and the “shrunken log2 fold change” value was 0.0671. In the case of RRIRMRPPRLPRPRPRPQTMPRP, the “shrunken log2 fold change” value was 0.276. For RRIRMRPPRLPRPRPRPQVEPRP, the “shrunken log2 fold change” value was -0.00107. With RRIRMRPPRLPRPRPRPQWMPRP the “shrunken log2 fold change” value was 0.109. RRIRMRPPRLPRPRPRPQWNPRP was tested, and the “shrunken log2 fold change” value was -0.149. In the case of RRIRMRPPRLPRPRPRPQYMPRP, the “shrunken log2 fold change” value was -0.969. With RRIRMRPPRLPRPRPRPQYTPRP the “shrunken log2 fold change” value was -0.0579. With RRIRMRPPRLPRPRPRPRAEPRP the “shrunken log2 fold change” value was 1.73. With RRIRMRPPRLPRPRPRPRAFPRP the “shrunken log2 fold change” value was 0.918. RRIRMRPPRLPRPRPRPRAHPRP was tested, and the “shrunken log2 fold change” value was 0.758. RRIRMRPPRLPRPRPRPRAYPRP was tested, and the “shrunken log2 fold change” value was 0.426. For RRIRMRPPRLPRPRPRPRCRPRP, the “shrunken log2 fold change” value was 0.619. For RRIRMRPPRLPRPRPRPRDWPRP, the “shrunken log2 fold change” value was 1.31. With RRIRMRPPRLPRPRPRPREIPRP the “shrunken log2 fold change” value was 1.35. In the case of RRIRMRPPRLPRPRPRPRFLPRP, the “shrunken log2 fold change” value was -0.00457. RRIRMRPPRLPRPRPRPRFWPRP was tested, and the “shrunken log2 fold change” value was 0.522. For RRIRMRPPRLPRPRPRPRGTPRP, the “shrunken log2 fold change” value was 1.36. RRIRMRPPRLPRPRPRPRHCPRP was tested, and the “shrunken log2 fold change” value was 0.28. In the case of RRIRMRPPRLPRPRPRPRHIPRP, the “shrunken log2 fold change” value was 0.0163. For RRIRMRPPRLPRPRPRPRIIPRP, the “shrunken log2 fold change” value was -0.138. With RRIRMRPPRLPRPRPRPRIPPRP the “shrunken log2 fold change” value was 0.199. In the case of RRIRMRPPRLPRPRPRPRKAPRP, the “shrunken log2 fold change” value was 1.09. In the case of RRIRMRPPRLPRPRPRPRLRPRP, the “shrunken log2 fold change” value was 1.17. With RRIRMRPPRLPRPRPRPRMNPRP the “shrunken log2 fold change” value was -0.138. For RRIRMRPPRLPRPRPRPRPQPRP, the “shrunken log2 fold change” value was 1.13. For RRIRMRPPRLPRPRPRPRRHPRP, the “shrunken log2 fold change” value was 1.02. For RRIRMRPPRLPRPRPRPRSDPRP, the “shrunken log2 fold change” value was 0.722. In the case of RRIRMRPPRLPRPRPRPRWKPRP, the “shrunken log2 fold change” value was 0.214. RRIRMRPPRLPRPRPRPRWRPRP was tested, and the “shrunken log2 fold change” value was 0.732. In the case of RRIRMRPPRLPRPRPRPRYCPRP, the “shrunken log2 fold change” value was -0.164. With RRIRMRPPRLPRPRPRPRYSPRP the “shrunken log2 fold change” value was -0.342. With RRIRMRPPRLPRPRPRPSDAPRP the “shrunken log2 fold change” value was 0.617. In the case of RRIRMRPPRLPRPRPRPSEEPRP, the “shrunken log2 fold change” value was 0.0287. With RRIRMRPPRLPRPRPRPSESPRP the “shrunken log2 fold change” value was -0.01. RRIRMRPPRLPRPRPRPSEWPRP was tested, and the “shrunken log2 fold change” value was 0.0913. With RRIRMRPPRLPRPRPRPSHDPRP the “shrunken log2 fold change” value was 0.0846. For RRIRMRPPRLPRPRPRPSLGPRP, the “shrunken log2 fold change” value was 0.193. With RRIRMRPPRLPRPRPRPSNCPRP the “shrunken log2 fold change” value was -0.376. With RRIRMRPPRLPRPRPRPSNPPRP the “shrunken log2 fold change” value was 0.155. With RRIRMRPPRLPRPRPRPSQAPRP the “shrunken log2 fold change” value was 0.689. In the case of RRIRMRPPRLPRPRPRPSRWPRP, the “shrunken log2 fold change” value was 1. For RRIRMRPPRLPRPRPRPSRYPRP, the “shrunken log2 fold change” value was -0.173. With RRIRMRPPRLPRPRPRPSSKPRP the “shrunken log2 fold change” value was 1.87. With RRIRMRPPRLPRPRPRPSSWPRP the “shrunken log2 fold change” value was 0.477. With RRIRMRPPRLPRPRPRPSTLPRP the “shrunken log2 fold change” value was -0.239. In the case of RRIRMRPPRLPRPRPRPSWQPRP, the “shrunken log2 fold change” value was 0.305. For RRIRMRPPRLPRPRPRPSWSPRP, the “shrunken log2 fold change” value was 0.154. In the case of RRIRMRPPRLPRPRPRPSYVPRP, the “shrunken log2 fold change” value was -0.331. With RRIRMRPPRLPRPRPRPTDMPRP the “shrunken log2 fold change” value was 0.0845. RRIRMRPPRLPRPRPRPTEGPRP was tested, and the “shrunken log2 fold change” value was 0.269. RRIRMRPPRLPRPRPRPTEVPRP was tested, and the “shrunken log2 fold change” value was 0.598. In the case of RRIRMRPPRLPRPRPRPTFQPRP, the “shrunken log2 fold change” value was 0.428. For RRIRMRPPRLPRPRPRPTFWPRP, the “shrunken log2 fold change” value was 0.916. In the case of RRIRMRPPRLPRPRPRPTGNPRP, the “shrunken log2 fold change” value was 0.496. RRIRMRPPRLPRPRPRPTIMPRP was tested, and the “shrunken log2 fold change” value was 0.176. In the case of RRIRMRPPRLPRPRPRPTLSPRP, the “shrunken log2 fold change” value was 0.377. RRIRMRPPRLPRPRPRPTMEPRP was tested, and the “shrunken log2 fold change” value was 0.868. With RRIRMRPPRLPRPRPRPTMKPRP the “shrunken log2 fold change” value was 0.482. For RRIRMRPPRLPRPRPRPTMTPRP, the “shrunken log2 fold change” value was 2.3. With RRIRMRPPRLPRPRPRPTNKPRP the “shrunken log2 fold change” value was 0.111. With RRIRMRPPRLPRPRPRPTPMPRP the “shrunken log2 fold change” value was 0.981. For RRIRMRPPRLPRPRPRPTQPPRP, the “shrunken log2 fold change” value was 0.176. For RRIRMRPPRLPRPRPRPTRGPRP, the “shrunken log2 fold change” value was 1.57. In the case of RRIRMRPPRLPRPRPRPTRNPRP, the “shrunken log2 fold change” value was 0.212. For RRIRMRPPRLPRPRPRPTSVPRP, the “shrunken log2 fold change” value was 0.172. RRIRMRPPRLPRPRPRPTTLPRP was tested, and the “shrunken log2 fold change” value was 0.34. RRIRMRPPRLPRPRPRPTTSPRP was tested, and the “shrunken log2 fold change” value was 0.499. For RRIRMRPPRLPRPRPRPTVPPRP, the “shrunken log2 fold change” value was 0.388. With RRIRMRPPRLPRPRPRPTYDPRP the “shrunken log2 fold change” value was 0.473. With RRIRMRPPRLPRPRPRPTYYPRP the “shrunken log2 fold change” value was -0.554. For RRIRMRPPRLPRPRPRPVAWPRP, the “shrunken log2 fold change” value was 0.213. RRIRMRPPRLPRPRPRPVCDPRP was tested, and the “shrunken log2 fold change” value was 0.367. For RRIRMRPPRLPRPRPRPVCWPRP, the “shrunken log2 fold change” value was 0.833.
